# Earlier results in publication PMC7609432.
# Read-outs that look alike come from different tables or passages of the source.
# Tests used:
# IQGAP1 (Danio rerio) [1] = assay: SW-FCCS
# IQGAP1 (Danio rerio) [2] = assay: SW-FCCS; remark: listed apart in the source
# Sequence of IQGAP1 (Danio rerio) (P46940 2-1657): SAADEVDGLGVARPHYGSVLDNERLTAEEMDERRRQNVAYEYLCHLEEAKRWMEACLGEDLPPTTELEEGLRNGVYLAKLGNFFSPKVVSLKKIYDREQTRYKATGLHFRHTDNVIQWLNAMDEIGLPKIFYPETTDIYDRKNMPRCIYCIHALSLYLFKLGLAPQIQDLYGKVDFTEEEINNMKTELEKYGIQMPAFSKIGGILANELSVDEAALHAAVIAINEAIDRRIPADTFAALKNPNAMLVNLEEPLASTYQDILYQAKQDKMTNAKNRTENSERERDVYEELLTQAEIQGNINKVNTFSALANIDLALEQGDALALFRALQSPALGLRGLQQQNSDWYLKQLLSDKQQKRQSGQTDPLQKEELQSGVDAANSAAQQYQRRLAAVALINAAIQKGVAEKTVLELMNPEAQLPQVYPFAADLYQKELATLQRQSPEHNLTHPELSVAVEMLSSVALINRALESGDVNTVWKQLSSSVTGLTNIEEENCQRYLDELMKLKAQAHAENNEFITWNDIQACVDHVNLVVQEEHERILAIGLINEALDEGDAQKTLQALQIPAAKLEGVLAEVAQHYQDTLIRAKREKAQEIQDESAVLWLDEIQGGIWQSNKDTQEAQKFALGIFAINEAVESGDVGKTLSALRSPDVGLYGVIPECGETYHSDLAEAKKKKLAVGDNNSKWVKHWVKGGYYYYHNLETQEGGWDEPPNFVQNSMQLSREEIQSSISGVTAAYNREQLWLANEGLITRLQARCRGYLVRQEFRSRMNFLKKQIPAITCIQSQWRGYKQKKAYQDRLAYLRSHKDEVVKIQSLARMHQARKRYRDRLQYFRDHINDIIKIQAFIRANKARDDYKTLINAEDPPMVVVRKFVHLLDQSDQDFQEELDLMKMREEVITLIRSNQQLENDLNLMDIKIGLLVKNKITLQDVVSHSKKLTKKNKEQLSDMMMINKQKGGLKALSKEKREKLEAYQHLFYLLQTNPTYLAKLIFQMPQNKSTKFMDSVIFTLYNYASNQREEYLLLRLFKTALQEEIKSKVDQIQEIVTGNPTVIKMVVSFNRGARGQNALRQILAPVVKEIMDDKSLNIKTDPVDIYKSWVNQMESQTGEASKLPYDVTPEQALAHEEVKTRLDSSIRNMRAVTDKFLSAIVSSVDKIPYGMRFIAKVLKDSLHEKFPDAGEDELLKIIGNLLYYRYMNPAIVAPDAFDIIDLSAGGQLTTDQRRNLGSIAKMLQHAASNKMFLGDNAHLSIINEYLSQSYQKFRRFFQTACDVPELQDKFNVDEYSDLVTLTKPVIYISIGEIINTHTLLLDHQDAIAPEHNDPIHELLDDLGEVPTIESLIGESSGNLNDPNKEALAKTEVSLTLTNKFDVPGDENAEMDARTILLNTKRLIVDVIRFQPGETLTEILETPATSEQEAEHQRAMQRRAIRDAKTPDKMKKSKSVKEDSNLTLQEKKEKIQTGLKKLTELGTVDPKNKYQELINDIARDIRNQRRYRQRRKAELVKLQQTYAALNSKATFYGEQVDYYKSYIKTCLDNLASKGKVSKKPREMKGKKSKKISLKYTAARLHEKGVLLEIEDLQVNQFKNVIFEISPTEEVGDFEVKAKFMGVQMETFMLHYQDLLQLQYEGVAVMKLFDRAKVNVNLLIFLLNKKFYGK
substance,measurement,setting,value
Cdc42 (from UniProt P60953),Kd,IQGAP1 (Danio rerio) [1],105 nM
same,Kd,IQGAP1 (Danio rerio) [2],> 1500 nM
